Data: paper PMC2384007 (PLoS ONE, 2008)

Columns and labels:
[1] = molecular target: Mycobacterium tuberculosis Biotin Protein Ligase (Mycobacterium tuberculosis) (UniProt I6YFP0)
[2] = molecular target: T1, Biotin Protein Ligase (MtBPL) (Mycobacterium tuberculosis, UniProt I6YFP0); assay: ITC (VP-ITC, […]°C); assay type: binding
T1 construct: gene birA; 266 amino acids, hexahistidine tag at N-terminus
T1 sequence (I6YFP0 whole entry, looked up): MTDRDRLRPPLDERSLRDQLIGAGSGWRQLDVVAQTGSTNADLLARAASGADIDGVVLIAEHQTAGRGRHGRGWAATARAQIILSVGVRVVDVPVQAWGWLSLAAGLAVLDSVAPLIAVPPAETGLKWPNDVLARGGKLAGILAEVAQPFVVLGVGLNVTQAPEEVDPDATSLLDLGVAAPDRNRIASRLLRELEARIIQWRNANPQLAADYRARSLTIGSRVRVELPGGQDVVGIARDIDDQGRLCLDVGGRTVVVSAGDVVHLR

Chain of Mycobacterium tuberculosis Biotin Protein Ligase (Mycobacterium tuberculosis) (I6YFP0 whole entry): as the sequence (I6YFP0 whole entry, looked up) above

“biotin carboxyl carrier protein (BCCP) domain of M. tuberculosis acetyl CoA carboxylase (domain or fragment)” was tested. Which Km for BCCP in the MtBPL catalysed incorporation of [14C]-biotin into BCCP (steady state kinetics, Michaelis-Menten fit) [1] did it give?
Its Km for BCCP in the MtBPL catalysed incorporation of [14C]-biotin into BCCP (steady state kinetics, Michaelis-Menten fit) is 5.2 µM.

`Nc1ncnc2c1ncn2[C@@H]1O[C@H](COP(=O)(O)OC(=O)CCCC[C@@H]2SC[C@@H]3NC(=O)N[C@@H]32)[C@@H](O)[C@H]1O` [bio-5′-AMP] was tested. Which Kd [2] did it give?
Its Kd is 1360 nM.
